One assay relates to A. xylosoxidans. As to the kind of experiment: Serial passage resistance development study, A. xylosoxidans. Type of assay: cell-based, Achromobacter xylosoxidans. Conditions: A. xylosoxidans, day 28.
For assay [1], the system named is P. aeruginosa AR-769. The assay is described as follows: Repeat dose study of AM1 in the rabbit pulmonary infection model. Type of assay: in vivo. Conditions: for Log CFU change v. pre-treatment (at 6 hours) / Mean Bacterial Density in Lung ± SD / Survival: rabbit.
The test system of assay [2] is A. baumannii. As to the kind of experiment: Checkerboard synergy assay (FICI) against A. baumannii. Type of assay: cell-based, Acinetobacter baumannii. Conditions: A. baumannii ATCC BAA-747. The procedure: (§1) Any known method to assess MIC may be used.
(§2) Checkerboards are constructed by first preparing columns of e.g., a 96-well polypropylene microtiter plate, wherein each well has the same amount of antibiotic diluted 2-fold along the horizontal axis. […] Bacteria are added to the drug combinations at concentrations of 1×10^5 […] in CAA, for example, with or without human serum or pulmonary surfactant. […] Summation fractional inhibitory concentrations (ΣFICs) are calculated for each drug and the minimum ΣFIC value (ΣFICmin) is used to determine the effect of the Chp peptide/antibiotic combination.
(§3) GN370 was further tested in combination with up to seven additional antibiotics (in addition to meropenem) against a variety of bacterial strains, including P. aeruginosa, A. baumannii, E. coli, E. cloacae, and K. pneumoniae. GN370 and the subject antibiotics were tested in a checkerboard assay format, and FICI values were determined, wherein ≤0.5 indicates synergy, >0.5-≤1 indicates additive; and >1 indicates indifferent.

Assay [3] relates to K. pneumoniae. The assay is described as follows: Checkerboard synergy assay (FICI) against K. pneumoniae. As to conditions: K. pneumoniae HM-44. Type of assay: cell-based, Klebsiella pneumoniae. The protocol: as §1, §2, §3
Assay [4] relates to P. aeruginosa. As to the kind of experiment: SEM and TEM imaging of membrane damage. It counts as cell-based, Pseudomonas aeruginosa. As to conditions: prior to pore formation and lysis. The protocol:
Additionally, the mechanism of action of both the Chp peptides and the lysins and/or lysin-AMP constructs disclosed herein may be evaluated through the use of Scanning Electron Microscopy (SEM) and Transmission Electron Microscopy (TEM) techniques. Due to the rapid permeabilization and depolarization of bacterial membranes when contacted with Chp peptides, as discussed above, membrane damage may be visualized through SEM and TEM. […] TEM and SEM images taken approximately 2 minutes after Chp peptide (8 μg/mL) contact with P. aeruginosa show the formation of multiple bulges on the bacterial membrane, as well as the appearance of pore formation and degradation of the cellular membrane. TEM and SEM images taken approximately 5 minutes after Chp peptide (8 μg/mL) contact with P. aeruginosa show continued formation of membrane bulges, along with degradation of the cellular membrane, condensation of electron-dense cytoplasmic material, formation of spheroplasts, and pore formation. TEM and SEM images taken approximately 20 minutes after Chp peptide (8 μg/mL) contact with P. aeruginosa show multiple instances of pore formation and the appearance of ghost cells, empty of intracellular content.

For assay [5], the system named is P. aeruginosa AR-769. The assay is described as follows: GN370 in the rabbit pneumonia model. Type of assay: in vivo, New Zealand White rabbits.
For assay [6], the system named is Raoultella ornithinolytica. As to the kind of experiment: MIC by broth microdilution against Raoultella ornithinolytica. Type of assay: cell-based. Conditions: N 1. The procedure: (§4) MIC values were determined by broth microdilution against clinical isolates and resistant isolates from a wide range of bacterial species, including isolates from the CDC Antibiotic Resistance bank, including the GN ESKAPE pathogens and E. coli, including carbapenem-resistant Enterobacteriaciae, Acinetobacter, and Pseudomonas.
Background: Dilution methods test growth across graded concentrations, often in twofold steps.

For another assay, the system named is Kluyvera ascorbate. The assay is described as follows: MIC by broth microdilution against Kluyvera ascorbate. Type of assay: cell-based. As to conditions: N 1. The protocol: as §4
Assay [7] has as its system A. baumannii. As to the kind of experiment: GN370 time-kill assay, A. baumannii. Conditions: for Log10 CFU/mL: A. baumannii ATCC BAA 747. It counts as cell-based, Acinetobacter baumannii. The procedure:
(§5) A kinetic analysis of GN370 bactericidal activity was performed using a time-kill assay format in which CFU reductions of each target organism (P. aeruginosa, K. pneumoniae, A. baumannii, E. coli, and E. cloacae) were measured over 24 hours at 37° C. […] Bactericidal activity was defined as CFU reductions of ≥3-log 10 CFU/mL as compared to the inoculum at the 24-hour time point.

For assay [8], the system named is K. pneumoniae. The assay is described as follows: MBEC against K. pneumoniae biofilm. Type of assay: cell-based, Klebsiella pneumoniae. As to conditions: MDR and XDR K. pneumoniae (11).
In the next assay the test system is E. coli. The assay is described as follows: MIC by broth microdilution against E. coli. It counts as cell-based, Escherichia coli.
Assay [9] concerns A. baumannii. The assay is described as follows: MBEC against A. baumannii biofilm. As to conditions: MDR and XDR A. baumannii (22). It counts as cell-based, Acinetobacter baumannii.
Assay [10] relates to P. aeruginosa. The assay is described as follows: GN370 time-kill assay, P. aeruginosa. It counts as cell-based, Pseudomonas aeruginosa. Conditions: for Log10 CFU/mL: P. aeruginosa PA25. The procedure:
as §5

Assay [11] has as its system Gram-negative bacteria biofilm. As to the kind of experiment: Antibiofilm activity (MBEC) against Gram-negative bacteria, incl. MDR and XDR isolates. As to conditions: range of MDR and XDR isolates. Type of assay: cell-based.
Setting [12] is: AM1 1 mg/kg i.v. every 24 hours (n = 7).
The mark [13] stands for this setting: AM1 5 mg/kg i.v. every 24 hours (n = 8).
Setting [14] is: Escherichia coli, AR Bank, N 17.
[15] abbreviates: Escherichia coli, Weill Cornell, N 13.
Setting [16] is: Escherichia coli, all isolates, N 30.

Where no end group is shown, it is not given here.

As to “MRLKMARRRYRLPRRRSRRLFSRTALRMHPRNRLRRIMRGGIRF [AM1]”, the “change in MIC over serial passage” value with A. xylosoxidans is on record as “no increase in the MICs”. In the assay on P. aeruginosa AR-769 [1] (agent alone, intravenous, treatment from 6 hours post-infection), the “mean bacterial density in lungs compared to the vehicle control group” value is on record as “moderate to no CFU/g reduction”. In the assay with P. aeruginosa AR-769 [1] (setting [12]), the “Log CFU change v. pre-treatment (at 6 hours)” value was found to be 1.56 Log CFU, the “Mean Bacterial Density in Lung ± SD” value amounted to 9.02 ± 1.49 Log CFU/lung and the Survival came to 0%. In the assay with P. aeruginosa AR-769 [1] (setting [13]), the “Log CFU change v. pre-treatment (at 6 hours)” value is listed as 1.80 Log CFU, the “Mean Bacterial Density in Lung ± SD” value was determined as 8.98 ± 1.47 Log CFU/lung and the Survival was determined as 37.5%.
Turning to `C[C@@H](O)[C@H]1C(=O)N2C(C(=O)O)=C(S[C@@H]3CN[C@H](C(=O)N(C)C)C3)[C@H](C)[C@H]12` [meropenem, reference compound], the “FICI of the antibiotic with GN370” value in the assay with A. baumannii [2] and with K. pneumoniae [3] was 0.5 throughout.

B1: GN370: lysin-AMP construct, SEQ ID NO: 149: MIDR, FIRL and NPTH moieties N-terminal to GN202 lysin (protein)
chain: MIDRFIRLNPTHGPRRPRRPGRRAPVRTSQRGIDLIKSFEGLRLSAYQDSVGVWTIGYGTTRGVTRYMTITVEQAERMLSNDIQRFEPELDRLAKVPLNQNQWDALMSFVYNLGAANLASSTLLDLLNKGDYQGAADQFPHWVNAGGKRLDGLVKRRAAERALFLEPLS
modifications: GN370 lysin
As to B1, in the assay on P. aeruginosa [4], the “membrane damage seen by TEM and SEM” value was “more extensive and larger membrane blebs”. The “animals surviving until the end of the study” value in the assay on P. aeruginosa AR-769 [5] (GN370 at 3 mg/kg and 10 mg/kg alone or in addition to amikacin) came out at 100%. The “decrease of mean bacterial densities in lungs vs vehicle controls” value in the assay with P. aeruginosa AR-769 [5] (amikacin-alone or GN370-alone) is reported as ~2.0 log10 CFU/g. The “MIC Range” value in assay [6] is 0.25 µg/mL; against Kluyvera ascorbate it was 1 µg/mL; in the assay with E. coli (setting [14]), 0.125 to 1 µg/mL; against E. coli (setting [15]), 0.064 to 4 µg/mL; in the assay on E. coli (setting [16]), 0.0625 to 4 µg/mL. The “Log10 CFU/mL” value in the assay on A. baumannii [7] (0.2x MIC, 1 hr) was found to be 3.8 Log10 CFU/mL; in the assay on A. baumannii [7] (0.2x MIC, 3 hr), 4.0 Log10 CFU/mL; in the assay on A. baumannii [7] (0.2x MIC, 24 hr) it was 5.8 Log10 CFU/mL; with A. baumannii [7] (1x MIC, 1 hr) it was 1.5 Log10 CFU/mL; with A. baumannii [7] (1x MIC, 3 hr), 1.5 Log10 CFU/mL; in the assay on A. baumannii [7] (1x MIC, 24 hr) it was 1.5 Log10 CFU/mL. The “Log10 CFU/mL” value in the assay with A. baumannii [7] (2x MIC, 1 hr) is 1.5 Log10 CFU/mL; in the assay on A. baumannii [7] (2x MIC, 3 hr), 1.5 Log10 CFU/mL; with A. baumannii [7] (2x MIC, 24 hr) it was 1.5 Log10 CFU/mL; in the assay with A. baumannii [7] (5x MIC, 1 hr) it was 1.5 Log10 CFU/mL; with A. baumannii [7] (5x MIC, 3 hr) it was 1.5 Log10 CFU/mL; with A. baumannii [7] (5x MIC, 24 hr) it was 1.5 Log10 CFU/mL. Besides, the “Log10 CFU/mL” value is 4.5 Log10 CFU/mL with P. aeruginosa [10] (0.2x MIC, 1 hr); 4.7 Log10 CFU/mL in the assay with P. aeruginosa [10] (0.2x MIC, 3 hr); 9.5 Log10 CFU/mL in the assay with P. aeruginosa [10] (0.2x MIC, 24 hr); 1.5 Log10 CFU/mL with P. aeruginosa [10] (1x MIC, 1 hr); 1.5 Log10 CFU/mL in the assay on P. aeruginosa [10] (1x MIC, 3 hr); 1.54 Log10 CFU/mL with P. aeruginosa [10] (1x MIC, 24 hr). The “Log10 CFU/mL” value in the assay on P. aeruginosa [10] (2x MIC, 1 hr) is listed as 1.5 Log10 CFU/mL; with P. aeruginosa [10] (2x MIC, 3 hr), 1.5 Log10 CFU/mL; with P. aeruginosa [10] (2x MIC, 24 hr) it was 1.5 Log10 CFU/mL; in the assay on P. aeruginosa [10] (5x MIC, 1 hr), 1.5 Log10 CFU/mL; in the assay on P. aeruginosa [10] (5x MIC, 3 hr), 1.5 Log10 CFU/mL; with P. aeruginosa [10] (5x MIC, 24 hr) it was 1.5 Log10 CFU/mL. In addition, the “concentration with bactericidal activity (≥3-log 10 CFU/mL reduction at 24 hours)” value was ≥ 1 ×MIC in the assay on A. baumannii [7] (A. baumannii, 37° C.) and ≥ 1 ×MIC in the assay with P. aeruginosa [10] (P. aeruginosa, 37° C.). In addition, the MBEC50 in the assay with K. pneumoniae [8] and with A. baumannii [9] was 1 µg/mL throughout. In addition, the MBEC90 in the assay on K. pneumoniae [8] and with A. baumannii [9] was 2 µg/mL throughout. Further, the results for the “MBEC Range” value in the assay with K. pneumoniae [8] and in the assay with A. baumannii [9] were 0.5 to 4 µg/mL and 0.5 to 2 µg/mL, respectively. Further, the “Number of isolates at MBEC 0.5 μg/mL” value in the assay on K. pneumoniae [8] is recorded as 3; in the assay on A. baumannii [9], 2. Besides, the “Number of isolates at MBEC 1 μg/mL” value in the assay with K. pneumoniae [8] is recorded as 3; with A. baumannii [9], 12. Moreover, the figures for the “Number of isolates at MBEC 2 μg/mL” value in the assay on K. pneumoniae [8] and in the assay on A. baumannii [9] were 4 and 8, respectively. In the assay with K. pneumoniae [8], the “Number of isolates at MBEC 4 μg/mL” value is on record as 1. In addition, the MIC result against E. coli (E. coli AR-128) is “(MIC = 0.25 μg/mL)”; with E. coli (E. coli ATCC 25922 (head of Table 19)), 0.5 µg/mL. Also, the MIC90 in the assay on E. coli (E. coli clinical and resistant isolates) came to 1 µg/mL; against E. coli (setting [14]) it was 1 µg/mL; in the assay on E. coli (setting [15]), 0.5 µg/mL; in the assay with E. coli (setting [16]) it was 1 µg/mL. Moreover, the figures for the MIC50 against E. coli (setting [14]), with E. coli (setting [15]) and with E. coli (setting [16]) were 0.5 µg/mL, 0.25 µg/mL and 0.25 µg/mL, respectively. In addition, in [11], the MBEC is ≤ 4 µg/mL.

By MIC is commonly meant the lowest concentration found to suppress growth. The term MIC90 denotes an inhibitory concentration at the 90% level, which refers to growth in some studies and to a panel of isolates in others. Read a low MIC90 as higher susceptibility. In general, MIC50 refers to an inhibitory concentration at the 50% level, which refers to growth in some studies and to a panel of isolates in others.

(Values after patent publication US20240181022A1, “AMURINS LYSINS, AND LYSIN-ANTIMICROBIAL PEPTIDE (AMP) CONSTRUCTS ACTIVE AGAINST GRAM-NEGATIVE BACTERIA” (priority 2021, published 2024).)
